Measured values taken from patent US7592168B2, “Cephalosporin C acylase mutant and method for preparing 7-ACA using same” (Sandoz AG, priority 2003, dated 2009).

Test system: [H][C@]12SCC(COC(C)=O)=C(C(=O)O)N1C(=O)[C@H]2NC(=O)CCC[C@@H](N)C(=O)O
Test: CPC hydrolysis kinetics (Lineweaver-Burk plot), fivefold mutant
Type: biochemical, Pseudomonas sp. SE83
Details: other: substrate CPC, purified enzyme, 0.1 M Tris-HCl pH 8.0, 37° C.
Experimental: The enzyme activity of CPC acylase mutant to CPC was measured according to the method described by Park et al. with minor modifications as follows (Park, et al., Kor. J. Appl. Microbiol. Biotechnol. 23: 559-564, 1995). A substrate solution was prepared by dissolving CPC (purity 74.2%; CJ Corp., Korea) in 0.1 M Tris-HCl buffer solution (pH 8.0) at a concentration of 20 mg/ml and adjusting pH to 8 with 1 N NaOH. 20 μl of the CPC solution was mixed with 20 μl of the crude enzyme solution prepared above and the reaction mixture was incubated at 37° C. for 5 min. After the reaction, the mixture (200 μl) of 50 mM NaOH and 20% glacial acetic acid (1:2) was added thereto to stop the reaction. 200 μl of the supernatant recovered from the reaction mixture by centrifugation was mixed with 40 μl of 0.5% (w/v) PDAB (p-dimethylaminobenzaldehyde; Sigma, USA) dissolved in a methanol and the reaction mixture was incubated at 37° C. for 10 min. After the reaction, the absorbance of reaction mixture was measured at 415 nm and quantified by comparing with a calibration curve of standard material. […] Meanwhile, the specific activity of CPC acylase mutant for CPC was determined by measuring the amount of protein remaining in the enzyme solution according to the method described by Bradford (Bradford, M., Anal. Biochem. 72: 248-254, 1976) and representing it as an active unit corresponding to 1 mg of protein. […]

With “Pseudomonas sp. SE83 CPC acylase AcyII fivefold mutant F169αY/M31βL/F58βM/H70βS/I176βV (mI176) (Pseudomonas sp. SE83; F170Y/F297M/H309S/I415V/M270L)” the Km was 8 mM.
